Experimental data reported in the DeepSol protein solubility set.

Assay: soluble on expression in E. coli; label from the status in PepcDB or PDB records

| Sequence | soluble on expression in E. coli |
| --- | --- |
| MAFLLALDQGTTSSRAILFTLEGRPVAVAKREFRQLYPKPGWVEHDPLEIWETTLWAAREVLRRAGAEAGEVLALGITNQRETTLLWDRKTGKPLHNAIVWQDRRTTPLCEALRAKGLEPLFRERTGLLFDPYFSGTKLVWLLENVPGLKARAEGGGVAFGTVDTWLIWNLTGGKVHATDPTNASRTLLFNLHTLAWDPELLEALGIPAALLPEVRPSDGDFGETLPELLGAPVPIRGVLGDQQAALFGQAALGGGEGKCTYGTGAFLLLNTGKRPVLSEKGLLATVAWSLGGRATYALEGSLFVAGAAVGWLKEVGLIRESAEVEALAASVEDTGDVYFVPAFTGLGAPYWDPYARGTLLGLTRGTSRAHLARAALEGVAFQVRDVVLAMEEEAGVRLKVLKADGGMAQNRLFLKIQADLLGVPVAVPEVTETTALGAALMAGVGAGALSPEDVAGRFREAERFLPTMPEGRREALYRRWREAVERAKGWAREG | soluble |
| MGSDKIHHHHHHMDGSSQEGEKKKKVYEVKTFPISFALGENQENITITTQTPSKPSKEKKFHKARMLHKQGKIAEAKKYYQQLINEGFNDHRVFSNYGVILAQLGKLKEAEISTRKAIEMQPNYAEAHSNLGIILNDLGKLEEAEICQRKAIKIKPNLTGAAWNLYGLANTIKEAEERVNQVLKIDENHVEAQLHLSALKLHQGDQSLFDNLTKSTHKDHAITRSIKWVANLPKLPELFFYRWALFDSMTKKSKKDRPFYEFGVWRGASFRYLINTFKKGYGFDTFEGLPEDWHHEAQGTYSAEGIIPNIEGGEFIAGKFEDTLPTFYSKPRPMASIINFDADLYSSTLCALNCSKPVIDKDTILIFDEFIISENWEQDEYKALNEFCSKNNLTYEVLAVSYFEKQVAVKLIGV | not soluble |
| NDEDCRNIYRYSPKDRKFEKLNLETDVTSAFAMSENNPSLAAYIGQGCYNAGVAYVYDLKKKTSRLIADPMKPTLERIELGEMKPWNFTASDGTEIKGMMCLPPSFDPNKKYPLIVYYYGGTTPTERGISNPYCAQLFASRDYVVYVIQPSGTIGFGQEFSARHVNAWGKRTADDIIEGTKQFCKEHPFVNDKKIGCLGASYGGFMTQYLQTQTDIFAAAVSHAGISNVTSYWGEGYWGYGYNAIAAADSYPWNNPELFTKQGSLFNADKINTPLLLLHGTVDTNVPIGESIQLFNALKILGKTVEFITVDGENHFIADYPKRMQWHNSIMAWFARWLQ | not soluble |
| MGSDKIHHHHHHMLWSMTDGATPATPPTAAPEERFPHVNPLVYRFVVDVTFLPVLLTGMHIDVHGREHVPPPGTPLVVAANHQSALDPFLIARALPPGRYLQFMAKRELFVPVIGDIIRAGGSFPVDRESNDVGAIRTSLRILKAGGTVGIFPQGTRGGQELHGGAALIAARGRAPILPAGISHDGKRWVVRFGEPLPARGGIKANTEELGRRLQVLAQPVGRHL | not soluble |
| VAERFVVTGGNRLSGEVAVGGAKNSVLKLMAATLLAEGTSTITNCPDILDVPLMAEVLRGLGATVELDGDVARITAPDEPKYDADFAAVRQFRASVCVLGPLVGRCKRARVALPGGDAIGSRPLDMHQAGLRQLGAHCNIEHGCVVARAETLRGAEIQLEFPSVGATENILMAAVVAEGVTTIHNAAREPDVVDLCTMLNQMGAQVEGAGSPTMTITGVPRLHPTEHRVIGDRIVAATWGIAAAMTRGDISVAGVDPAHLQLVLHKLHDAGATVTQTDASFRVTQYERPKAVNVATLPFPGFPTDLQPMAIALASIADGTSMITENVFEARFRFVEEMIRLGADARTDGHHAVVRGLPQLSSAPVWCSDIRAGAGLVLAGLVADGDTEVHDVFHIDRGYPLFVENLVSLGAEIERVCC | not soluble |
| MEQYDQLYRLYKSVDTTTLRGYQEFVDLFPPLSSTVALEQWETASDRLDALKADITDEFPGTGETYAEIAARLTRDEAFTALDLYSKYDRSVNVLVLDVDETLRSAGDTDNEIPRDTLYLLTQFHEAGIPIVVCTGQTLENVKGFMIQGLGNDLVSSGQMSIVYESGNGVFTPKHGEDTKRLLYERLDGAVVDVFETVRRRVLSEAPDAVGKRCHLQGNEFNVTLKPNAEVGSDNAVEIIDESLCYLCGLVGDAIAAQVDAEVDDPAGYARAYFSRDPEILDVLEAGGLPTHADIEDAPEAFRDILERVDLGYYEGDAAELVSLELDKSAGVEEAFDVLGIDDPFALVMGDSKSDLRVMRWVDENDAGIAAAPAHSSPDVLDHVSSRDDLVYEAGDASTVLRTIYGISLVEQLDEQGE | soluble |
